Values quoted from earlier work in article PMC12405408.

Target: CaSR (Homo sapiens) (UniProt P41180)
Chain of UniProt P41180 (P41180 20-1078): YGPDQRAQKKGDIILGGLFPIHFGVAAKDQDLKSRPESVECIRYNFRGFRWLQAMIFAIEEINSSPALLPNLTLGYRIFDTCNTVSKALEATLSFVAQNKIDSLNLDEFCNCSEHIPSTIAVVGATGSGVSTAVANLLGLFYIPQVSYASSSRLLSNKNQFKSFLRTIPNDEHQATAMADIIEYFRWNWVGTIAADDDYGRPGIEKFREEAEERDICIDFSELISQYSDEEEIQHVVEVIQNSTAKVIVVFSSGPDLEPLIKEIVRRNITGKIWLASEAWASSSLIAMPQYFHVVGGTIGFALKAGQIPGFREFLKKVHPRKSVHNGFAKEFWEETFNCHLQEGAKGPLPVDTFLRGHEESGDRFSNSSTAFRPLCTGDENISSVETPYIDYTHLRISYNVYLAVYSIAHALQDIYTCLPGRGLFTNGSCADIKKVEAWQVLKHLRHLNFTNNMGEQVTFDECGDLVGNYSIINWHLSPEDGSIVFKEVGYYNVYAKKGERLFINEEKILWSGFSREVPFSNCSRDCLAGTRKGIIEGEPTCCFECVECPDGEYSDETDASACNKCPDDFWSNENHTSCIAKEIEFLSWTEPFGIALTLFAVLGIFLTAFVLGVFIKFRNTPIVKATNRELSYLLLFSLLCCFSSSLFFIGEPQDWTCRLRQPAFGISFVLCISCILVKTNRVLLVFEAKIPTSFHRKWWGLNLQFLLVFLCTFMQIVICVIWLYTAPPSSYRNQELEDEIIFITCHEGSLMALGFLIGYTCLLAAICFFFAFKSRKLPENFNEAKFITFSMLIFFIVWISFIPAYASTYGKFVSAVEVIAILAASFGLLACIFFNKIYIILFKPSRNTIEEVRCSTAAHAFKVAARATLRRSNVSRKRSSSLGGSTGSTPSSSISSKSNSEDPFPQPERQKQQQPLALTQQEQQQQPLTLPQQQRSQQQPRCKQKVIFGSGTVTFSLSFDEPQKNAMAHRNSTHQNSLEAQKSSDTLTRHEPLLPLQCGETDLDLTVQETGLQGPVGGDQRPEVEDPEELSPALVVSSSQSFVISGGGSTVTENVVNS

- Kd: 3.2 nM
Substance: EWVPVTK peptide
